Experimental data as given in PMC4555872.

What was measured:
[1] = target: BG505 SOSIP.664 gp140 trimer (cleaved) (HIV-1 (BG505)); assay: negative stain electron microscopy
[2] = target: BG505 WT.SEKS gp140 (uncleaved) (HIV-1 (BG505)); assay: negative stain electron microscopy
[3] = target: CZA97.012 gp140 (uncleaved, foldon, His-tagged) (HIV-1 (subtype C, CZA97.012) | not stated); assay: SEC

Substance: BG505 SOSIP.664 gp140 trimer (cleaved) (complex)
- stoichiometry N [1]: 3

Substance: BG505 WT.SEKS gp140 (uncleaved)
- stoichiometry N [2]: 3

Substance: CZA97.012 gp140 (uncleaved, foldon, His-tagged)
- stoichiometry N [3]: 3
